# Laboratory results published in patent publication US8076087B2, “Galectin sequences and compositions and methods utilizing same for treating or diagnosing arthritis and other chronic inflammatory diseases” (Medical Research Fund of Tel Aviv Souraskv Medical Center, priority 2002, dated 2011).
# B1: galectin-8: recombinant human galectin-8 polypeptide, SEQ ID NO: 4, expressed in E. coli (protein)
# chain: MLSLNNLQNIIYNPVIPYVGTIPDQLDPGTLIVICGHVPSDADRFQVDLQNGSSVKPRADVAFHFNPRFKRAGCIVCNTLINEKWGREEITYDTPFKREKSFEIVIMVLKDKFQVAVNGKHTLLYGHRIGPEKIDTLGIYGKVNIHSIGFSFSSDLQSTQASSLELTEISRENVPKSGTPQLSLPFAARLNTPMGPGRTVVVKGEVNANAKSFNVDLLAGKSKDIALHLNPRLNIKAFVRNSFLQESWGEEERNITSFPFSPGMYFEMIIYCDVREFKVAVNGVHSLEYKHRFKELSSIDTLEINGDIHLLEVRSW
# B2: galectin-8 variant 2: recombinant galectin-8 variant 2 polypeptide, SEQ ID NO: 8, isoform found in synovial fluid cells of arthritic patients (protein)
# chain: MMLSLNNLENIIYNPYIPYVGTIPDQLDPGTLIVICGHVPSDADRFQVDLQNGSSVKPRADVAFHFNPRFKRAGCIVCNTLINEKWGREEITYDTPFKREKSFEIVIMVLKDKFQDLQSTQASSLELTEISRENVPKSGTPQLSLPFAARLNTPMGPGRTVVVKVRSECKCQKMIIYCDVREFKVAVNGVHSLEYKHRFKELSSIDTLEINGDIHLLEVRSW
# Experiments:
# [1] = test system: synovial fluid cells from RA patients; experiment: Apoptosis induction, annexin V/PI flow cytometry, synovial fluid cells; format: cell-based, human; settings: for total cell population in the apoptotic area: untreated control 19%
# Description: (§1) The assay was performed by Phosphatidyl Serine Detection Kit (IOP-116F FITC-conjugated, IQ Products, The Netherlands) using the manufacturer instructions. Human fibroblast cells from OA patients, synovial fluid cells and PBLs from RA and other arthritic patients were incubated with increasing concentrations of galectin-8 variants 1 and 2 (50-2000 ng/ml). Specific binding of annexin V was performed by the incubation of cells for 20 minutes on ice in a binding calcium buffer containing a saturating concentration of annexin V-fluorescein isothiocyanate (FITC) and propdium iodide (PI). After incubation, the cells were pelleted, and analyzed in FACS analyzer (Beckton Dickinson, San Jose, Calif.). Annexin V^+/PI^+ cells were defined as necrotic, while annexin V^+/PI^− cells were defined as apoptotic. The percent of the apoptotic cells of the total cells was determined.
# IL-1ra = IL-1ra levels in media of LPS-supplemented human synovial tissue / cell cultures, sandwich enzyme immunoassay; format: cell-based; settings: for increase of IL-1ra levels: synovial tissue culture, vs LPS treated control; for increase of IL-1ra levels / IL-1ra levels in media: LPS 3 μg/ml, 48 hours; for IL-1ra levels in media: 50-2000 ng/ml
# Description: (§2) Specimen Selection and Culture Conditions: Synovial tissues were obtained from patients undergoing total knee or hip replacement for osteoarthritis (OA). Within 2 hours of removal, synovial tissues were cut into small pieces, of a few millimeters in diameter. Synovial fibroblasts were cultured in 2 ml RPMI 1640 supplemented with 2 mM L-glutamine, 100 U/ml penicillin and 100 μg/ml streptomycin sulphate (Biological Industries).
# (§3) Inflammatory cells and PBLs derived from joints of rheumatoid arthritic (RA) patients were cultured individually [RPMI-1640 (Sigma, Israel)]. The murine fibroblast line, NIH 3T3, was used as a control. The recombinant galectin-8 peptide (r-galectin-8) was added to the culture medium of the synovial fibroblasts at a concentration of 0.125 μM, 0.25 μM, 0.5 μM and 1 μM) together with lipopolysaccharide (LPS, 3 μg/ml). The recombinant galectin-8 peptide variants (r-galectin-8 variant 1 and r-galectin-8 variant 2) were added to all the culture mediums in the following concentrations: 50 ng/ml, 125 ng/ml, 250 ng/ml, 500 ng/ml, 750 ng/ml, 1 μg/ml and 2 μg/ml together with lipopolysaccharide (LPS, 3 μg/ml). Following 48 hours of incubation (37° C., 5% CO2), the measurement of IL-1β, TNF-α and IL-1ra production was performed in supernatants by quantitative sandwich enzyme immunoassay technique (R&D Systems, Inc., USA). Detection limits were 1 pg/ml to 14 pg/ml. IL-1ra production was tested with and without the addition of lipopolysaccharide (LPS, 3 μg/ml) to the culture media.
# [2] = test system: PBLs of arthritic patients; experiment: Flow cytometry of recombinant galectin-8 binding to PBLs (anti-galectin-8 immunostaining); format: cell-based, human; settings: 1 μM added to PBLs
# Description: (§4) Peripheral white blood cells and the total cell population from synovial fluids of arthritic patients were isolated (approximately 10^7 cells) on a Ficoll gradient (Robbins Scientific Corporation, Sunngvale, Calif., USA) and analyzed by flow cytometry using anti-galectin-8 polyclonal antibody (generated in rabbits according to prior art protocols).
# (§5) Specific binding of anti-galectin-8 was performed by the incubation of cells for 20 minutes on ice in a binding calcium buffer containing a saturating concentration of anti-galectin-8. Thereafter, a second incubation with a goat-anti-rat conjugated to fluorescein isothiocyanate (FITC) was effected. After incubation, the cells were pelleted, and analyzed in FACS analyzer (Beckton Dickinson, San Jose, Calif.). Following the initial analysis, recombinant galectin-8 (as prepared in Example 1) (1 μM) was added to both the synovial fluid cells and the PBLs to verify that recombinant galectin-8 may be detected by immunostaining with anti-galectin-8 polyclonal antibody.
# IL-1β = IL-1β levels in media of LPS-supplemented human synovial tissue / cell cultures, sandwich enzyme immunoassay; format: cell-based; settings: for decrease of IL-1β levels: synovial tissue culture; for decrease of IL-1β levels / IL-1β levels in media: LPS 3 μg/ml, 48 hours; for IL-1β levels in media: 50-2000 ng/ml
# Description: as §2, §3
# [3] = test system: synovial fluid cells of arthritic patients; experiment: Flow cytometry of recombinant galectin-8 binding to synovial fluid cells (anti-galectin-8 immunostaining); format: cell-based, human; settings: 1 μM added to synovial fluid cells
# Description: as §4, §5
# TNFα = TNFα levels in media of LPS-supplemented human synovial tissue / cell cultures, sandwich enzyme immunoassay; format: cell-based; settings: for decrease of TNFα levels: synovial tissue culture; for decrease of TNFα levels / TNFα levels in media: LPS 3 μg/ml, 48 hours; for TNFα levels in media: 50-2000 ng/ml
# Description: as §2, §3
# [4] = test system: collagen induced arthritis (CIA); experiment: Collagen-induced arthritis (CIA) in DBA/1 mice, footpad thickness; format: in vivo; settings: 100 μg per injection, IP / systemic, from disease onset every day for 11 days
# Text: Animal treatment: 44 DBA/1 mice were induced with a joint inflammatory disease by two subcutaneous (s.c.) injections into the base of the tail of type II collagen three weeks apart. Joint inflammation, which appears several days after the last collagen injection, causes enhanced marked foot pad swelling, as well as swelling of other joints. The diameter of nonarthritic footpads is 1.5 to 1.7 mm. A footpad diameter of 1.9 to 2.0 mm was arbitrarily set as disease onset. […] Human galectin-8 protein and variants (100 μg per injection) as well as control injections were injected IP at disease onset and then every day for 11 days. The 44 mice were divided into 5 experimental groups as follows: Group 1 (negative control): systemic injection (starting at CIA onset) of PBS or PBS+30% glycerol (storing dilution solution of galectin proteins) (10 mice). Group 2 (positive control): systemic injection (starting at CIA onset) of anti-mouse TNFα mAb (cat. no. AMC-3012, Biosource Int. Inc. USA) adhering to the standard protocol (i.e., 100 μg antibody/mouse every day for 11 days) (6 mice). Group 3 (positive control): systemic injection of human galectin-8 protein according to the standard protocol (10 mice). Group 4: systemic injection of 100 μg per dose of human galectin-8 variant 1 according to the standard protocol (10 mice). Group 5: systemic injection of 100 μg per dose of human galectin-8 variant 2 (8 mice). The effect on footpad thickness was determined in a “blind” fashion, recording the electronic microcaliper measurements of the thickness of the joints, by picking the animals at random and recording their ears' signs following measurement. The mice were bled prior to disease induction, following disease onset and upon termination of the experiment (approximately day 11). The sera were stored and later analyzed for the presence of rheumatoid factor (RF) and cytokines. The mice were killed upon termination of the experiment and the joints removed from some of the animals for histopathological examination.
# [5] = test system: PBLs of arthritic patients; experiment: Apoptosis induction, annexin V/PI flow cytometry, PBLs; format: cell-based, human; settings: lowest concentration 50 ng/ml
# Description: as §1
# [6] = test system: human fibroblasts from OA patients; experiment: Apoptosis induction, annexin V/PI flow cytometry, OA fibroblasts; format: cell-based; settings: for total cell population in the apoptotic area: 24 h, no-addition control 39.5%
# Description: as §1
# [7] = 0.25 μM, 0.5 μM and 1 μM, vs LPS treated control, dose dependent
# [8] = 0.125 μM, vs LPS treated control
# [9] = 0.25 μM, vs LPS treated control
# [10] = human fibroblasts from OA patients
molecule,measurement,setting,value
"COc1cccc2c1C(=O)c1c(O)c3c(c(O)c1C2=O)C[C@@](O)(C(=O)CO)C[C@@H]3O[C@H]1C[C@H](N)[C@H](O)[C@H](C)O1 [doxorubicine, reference compound]",total cell population in the necrotic area,"[1]; 24 h, 150 μg/ml, positive control",80%
B1,IL-1ra production in the media of human synovial tissue,"IL-1ra; 0.25 μM, 0.5 μM and 1 μM, vs untreated control, dose dependent",increased
same,increase of IL-1ra levels,IL-1ra; 0.25 μM,approximately 4 fold
same,increase of IL-1ra levels,IL-1ra; 0.5 μM,~9 fold
same,increase of IL-1ra levels,IL-1ra; 1 μM,~22 fold
same,apoptotic effects in human synovial fluid cells,"[1]; 0.03 μM, 0.1 μM, 0.3 μM and 1 μM, dose dependent, vs serum free medium",induced apoptotic effects
same,total cell population in the apoptotic area,"[1]; 24 h, 0.03 μM",17%
same,total cell population in the apoptotic area,"[1]; 24 h, 0.1 μM",20%
same,total cell population in the apoptotic area,"[1]; 24 h, 0.3 μM",23%
same,increase in apoptosis development,"[1]; 24 h, 1 μM, vs untreated control",3 fold
same,total cell population in the apoptotic area,"[1]; 24 h, 1 μM",58%
same,detection of added recombinant galectin-8 on cells by anti-galectin-8 immunostaining,[2],detected
same,IL-1β release in the media of human synovial tissue,IL-1β; [7],inhibited
same,decrease of IL-1β levels,IL-1β; [8],approximately 9%
same,decrease of IL-1β levels,IL-1β; [9],~42%
same,decrease of IL-1β levels,"IL-1β; 0.5 μM, vs LPS treated control",~67%
same,detection of added recombinant galectin-8 on cells by anti-galectin-8 immunostaining,[3],detected
same,TNF-α release in the media of human synovial tissue,TNFα; [7],inhibited
same,decrease of TNFα levels,TNFα; [8],approximately 2%
same,decrease of TNFα levels,TNFα; [9],~43%
same,decrease of TNFα levels,"TNFα; 0.5 μM, vs LPS treated control",~74%
same,CIA manifestations (footpad swelling),[4],substantially reduced
B2,IL-1ra levels in media,IL-1ra; PBLs of RA patients,significantly and dose-dependently increased
same,IL-1ra levels in media,IL-1ra; [10],significantly and dose-dependently increased
same,IL-1ra levels in media,IL-1ra; synovial fluid cells (SFCs),significantly and dose-dependently increased
same,maximal apoptotic effect,"[1]; inflammatory cells from joints of arthritic patients, lowest concentration 50 ng/ml",approximately 100%
same,IL-1β levels in media,IL-1β; PBLs from RA patients,significantly and dose-dependently inhibited
same,IL-1β levels in media,IL-1β; [10],significantly and dose-dependently inhibited
same,IL-1β levels in media,IL-1β; synovial fluid cells (SFCs),significantly and dose-dependently inhibited
same,TNFα levels in media,TNFα; PBLs from RA patients,significantly and dose-dependently inhibited
same,TNFα levels in media,TNFα; [10],significantly and dose-dependently inhibited
same,TNFα levels in media,TNFα; synovial fluid cells (SFCs),significantly and dose-dependently inhibited
same,CIA manifestations (footpad swelling),[4],did not influence
same,maximal apoptotic effect,[5],approximately 100%
same,total cell population in the apoptotic area,[6]; 125 ng/ml,52.2%
same,total cell population in the apoptotic area,[6]; 250 ng/ml,50.8%
same,total cell population in the apoptotic area,[6]; 500 ng/ml,62%
same,total cell population in the apoptotic area,[6]; 750 ng/ml,59%
same,total cell population in the apoptotic area,[6]; 1000 ng/ml,71.4%
same,total cell population in the apoptotic area,[6]; 2000 ng/ml,77.4%
same,percentage of apoptotic cells,[6]; increasing concentrations (50-2000 ng/ml),gradually increased
